In article PMC10266124 (mAbs, 2023):

B1: mAb10 (52) (antibody, V domains shown)
VH: QVQLVQSGAEVKKPGSSVKVSCKASGYTFTSYGISWVRQAPGQGLEWMGGIIPMFGTTNYAQKFQGRVTITADKSTSTAYMELSSLRSEDTAVYYCARDRGDTIDYWGQGTLVTVSS
VL: DIQMTQSPSSLSASVGDRVTITCRASQGISNNLNWYQQKPGKAPKLLIYAASSLESGVPSRFSGSGSGTDFTLTISSLQPEDFATYYCQQGNGFPLTFGPGTKVDIK
B2: mAb18 (CV07-250) (antibody, V domains shown)
VH: QVQLVQSEAEVKEPGASVEVSCKASGYNFTNFAISWVRQAPGQGLEWMGWISGYNGDTNSAQKFLGRVTMTTDTSTTTAYMELRSLRSDDTAVYYCAGSDNYGFPYNGMDVWGQGTTVTVFN
VL: QSALTQPPSASGSPGQSVTISCTGTSSDLGAYHFVTWYQHYPGKAPKVMIYGVRKRPSGVPDRFSGSKSGNTASLTVSGLQDEDEADYYCSSYAGNNDFVFGGGTKLTVL
B3: mAb03 (imdevimab) (antibody, V domains shown)
VH: QVQLVESGGGVVQPGRSLRLSCAASGFTFSNYAMYWVRQAPGKGLEWVAVISYDGSNKYYADSVKGRFTISRDNSKNTLYLQMNSLRTEDTAVYYCASGSDYGDYLLVYWGQGTLVTVSS
VL: QSALTQPASVSGSPGQSITISCTGTSSDVGGYNYVSWYQQHPGKAPKLMIYDVSKRPSGVSNRFSGSKSGNTASLTISGLQSEDEADYYCNSLTSISTWVFGGGTKLTVL
B4: mAb16 (C121) (antibody, V domains shown)
VH: not shown
VL: QSALTQPASVSGSPGQSITISCTGTSSDVGSYNLVSWYQQHPGKAPKLMIYEGSKRPSGVSNRFSGSKSGNTASLTISGLQAEDEADYYCCSYAGSSTLVFGGGTKLTVL
B5: mAb19 (CV07-270) (antibody, V domains shown)
VH: QVQLVESGGGLVKPGGSLRLSCAASGFTFSDYYMTWIRQAPGKGLEWVSYISSSGSTIYYADSVKGRFTISRDNAKNSLYLQMNSLRAEDTAVYYCARARGSSGWYRIGTRWGNWFDPWGQGTLVTVSS
VL: QSALTQPASVSGSPGQSITISCTGTSSDVGGYNYVSWYQQHPGKAPKLMIYEVSNRPSGVSNRFSGSKSGNTASLTISGLQAEDEADYYCSSYTSSSNVVFGGGTMLTVL
B6: mAb01 (bamlanivimab) (antibody, V domains shown)
VH: QVQLVQSGAEVKKPGSSVKVSCKASGGTFSNYAISWVRQAPGQGLEWMGRIIPILGIANYAQKFQGRVTITADKSTSTAYMELSSLRSEDTAVYYCARGYYEARHYYYYYAMDVWGQGTAVTVSS
VL: not shown
B7: mAb27 (H014) (antibody, V domains shown)
VH: EVQLVQSGAEVKKPGATVKISCKVSGYSFSNYYIHWVKQAPGKSLEWIGYIDPFNGGTSDNLKFKGAATLTADTSTDTAYMELSSLRSEDTAVYYCARSEYDPYYVMDYWGQGTTVTVSS
VL: IVLTQSPFQSVSPKEKVTITCRASQSISSNLHWYQQKPDQSPKLLIKYASQSISGIPSRFSGSGSGTDFTLTINSLEAEDFGIYFCQQTNFWPYIFGQGTKLEIL
B8: mAb15 (C119) (antibody, V domains shown)
VH: QVQLVQSGAEVKKPGASVKVSCKASGYTFTSYYMHWVRQAPGQGLEWMGIINPSGGSTSYAQKLQGRVTMTRDTSTSTVYMELSSLRSEDTAVYYCARANHETTMDTYYYYYYMDVWGKGTTVTVSS
VL: QSALTQPASVSGSPGQSITISCTGTSSDVGGYKYVSWYQRHPGKAPKLMIYDVSNRPSGVSNRFSGSKSGNTASLTISGLQAEDEADYYCSSYTSSSTSVVFGGGTQLTVL
B9: mAb09 (etesevimab) (antibody, V domains shown)
VH: EVQLVESGGGLVQPGGSLRLSCAASGFTVSSNYMSWVRQAPGKGLEWVSVIYSGGSTFYADSVKGRFTISRDNSMNTLFLQMNSLRAEDTAVYYCARVLPMYGDYLDYWGQGTLVTVSS
VL: not shown
B10: mAb14 (C002) (antibody, V domains shown)
VH: EVQLVESGGGVVQPGRSLRLSCAASGFTFSIYGMHWVRQAPGKGLEWVAVISYDGSNKYYADSVKGRFTISRDNSKNTLYLQMNSLRAEDTAVYYCAKEGRPSDIVVVVAFDYWGQGTLVTVSS
VL: not shown
B11: mAb22 (S304) (antibody, V domains shown)
VH: VQLVESGGGLVQPGGSLRLSCAASGFTFSSYDMHWVRQTTGKGLEWVSTIGTAGDTYYPDSVKGRFTISREDAKNSLYLQMNSLRAGDTAVYYCARGDSSGYYYYFDYWGQGTLLTVSS
VL: DIEMTQSPSSLSAAVGDRVTITCRASQSIGSYLNWYQQKPGKAPKLLIYAASSLQSGVPSRFSGSGSGTDFTLTISSLQPEDFAIYYCQQSYVSPTYTFGPGTKVDIK
B12: mAb21 (S2A4) (antibody, V domains shown)
VH: EVQLVESGGGLVQPGGSLRLSCAASGFTFSSYWMNWVRQAPGKGLEWVANIKQDGSEKYYVDSVKGRFTISRDNAKNSLFLQMNSLRAEDTAVYYCARVWWLRGSFDYWGQGTLVTVSS
VL: NFMLTQPHSVSESPGKTVTISCTGSSGSIASNYVQWYQQRPGSAPTTVIYEDNQRPSGVPDRFSGSIDSSSNSASLTISGLKTEDEADYYCQSYDSSNHVVFGGGTKLTVL
B13: mAb02 (casirivimab) (antibody, V domains shown)
VH: QVQLVESGGGLVKPGGSLRLSCAASGFTFSDYYMSWIRQAPGKGLEWVSYITYSGSTIYYADSVKGRFTISRDNAKSSLYLQMNSLRAEDTAVYYCARDRGTTMVPFDYWGQGTLVTVSS
VL: DIQMTQSPSSLSASVGDRVTITCQASQDITNYLNWYQQKPGKAPKLLIYAASNLETGVPSRFSGSGSGTDFTFTISGLQPEDIATYYCQQYDNLPLTFGGGTKVEIK
B14: mAb23 (COVA1-16) (antibody, V domains shown)
VH: QVQLVQSGAEVKKPGASVKVSCKASGYTFTSYYMHWVRQAPGQGLEWMGIINSSGGSTSYAQKFQGRVTMTRDTSTSTVYMELSSLRSEDTAVYYCARPPRNYYDRSGYYQRAEYFQHWGQGTLVTVSS
VL: DIQLTQSPSSLSASVGDRVTITCQASQDISNYLNWYQQRPGKAPKLLIYDASNLETGVPSRFSGSGSGTDFTFTISSLQPEDIATYYCQQYDNPPLTFGGGTKLEIK
B15: mAb24 (S2E12) (antibody, V domains shown)
VH: not shown
VL: DIVLTQTPGTLSLSPGERATLSCRASQSVSSSYLAWYQQKPGQAPRLLIYGASSRATGIPDRFSGSGSGTDFTLTISRLEPEDFAVYYCQQYVGLTGWTFGQGTKVEIK
B16: mAb25 (S2M11) (antibody, V domains shown)
VH: EVQLVQSGAEVKKPGASVKVSCKASGYTFTGYYMHWVRQAPGQGLEWMGWINPISSGTSYAQTFQGRVTMTSDTSITTAYMELSRLRSDDTAVYYCARAAPFYDFWSGYSYFDYWGQGTLVTVSS
VL: not shown
B17: mAb08 (B38) (antibody, V domains shown)
VH: EVQLVESGGGLVQPGGSLRLSCAASGFIVSSNYMSWVRQAPGKGLEWVSVIYSGGSTYYADSVKGRFTISRHNSKNTLYLQMNSLRAEDTAVYYCAREAYGMDVWGQGTTVTVSS
VL: DIVMTQSPSFLSASVGDRVTITCRASQGISSYLAWYQQKPGKAPKLLIYAASTLQSGVPSRFSGSGSGTEFTLTISSLQPEDFATYYCQQLNSYPPYTFGQGTKLEIK
B18: mAb26 (4A8) (antibody, V domains shown)
VH: EVQLVESGAEVKKPGASVKVSCKVSGYTLTELSMHWVRQAPGKGLEWMGGFDPEDGETMYAQKFQGRVTMTEDTSTDTAYMELSSLRSEDTAVYYCATSTAVAGTPDLFDYYYGMDVWGQGTTVTVSS
VL: EIVMTQSPLSSPVTLGQPASISCRSSQSLVHSDGNTYLSWLQQRPGQPPRLLIYKISNRFSGVPDRFSGSGAGTDFTLKISRVEAEDVGVYYCTQATQFPYTFGQGTKVDIK
B19: mAb11 (298) (antibody, V domains shown)
VH: QVQLVQSGAEVKKPGASVKVSCKASGGTFSTYGISWVRQAPGQGLEWMGWISPNSGGTDLAQKFQGRVTMTRDTSTSTVYMELSSLRSEDTAVYYCASDPRDDIAGGYWGQGTLVTVSS
VL: not shown
B20: mAb29 (regdanvimab) (antibody, V domains shown)
VH: QITLKESGPTLVKPTQTLTLTCSFSGFSLSTSGVGVGWIRQPPGKALEWLALIDWDDNKYHTTSLKTRLTISKDTSKNQVVLTMTNMDPVDTATYYCARIPGFLRYRNRYYYYGMDVWGQGTTVTVSS
VL: ELVLTQPPSVSAAPGQKVTISCSGSSSNIGNNYVSWYQQLPGTAPKLLIYDNNKRPSGIPDRFSGSKSGTSATLGITGLQTGDEADYYCGTWDSSLSAGVFGGGTELTVL

target: Biotinylated SARS-CoV-2 spike S1 protein (SARS-CoV-2, Wuhan, UniProt P0DTC2, biotin (biotinylated)); test: SPR

Row | Binder | binding result
1 | B1 | binds
2 | B2 | binds
3 | B3 | binds
4 | B4 | binds
5 | B5 | binds
6 | B6 | binds
7 | B7 | binds
8 | B8 | binds
9 | B9 | binds
10 | B10 | binds
11 | B11 | binds
12 | B12 | binds
13 | B13 | binds
14 | B14 | binds
15 | B15 | binds
16 | B16 | binds
17 | B17 | binds
18 | B18 | binds
19 | B19 | binds
20 | B20 | binds
